B1: Azoarcus group I ribozyme (parent)
chain: GUGCCUUGCGCCGGGAAACCACGCAAGGGAUGGUGUCAAAUUCGGCGAAACCUAAGCGCCCGCCCGGGCGUAUGGCAACGCCGAGCCAAGCUUCGGCGCCUGCGCCGAUGAAGGUGUAGAGACUAGACGGCACCCACCUAAGGCAAACGCUAUGGUGAAGGCAUAGUCCAGGGAGUGGCGAAAGUCACACAAACCGG

Variants of: B1
Assay: reverse-splicing fitness (ratio to wild type); higher = more active; in vitro selection; Mg2+ level not given
In short: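 An in vitro group I ribozyme library with randomized positions was T7-transcribed and gel-purified. In triplicate, 10 pmol RNA in EPPS pH 7.5 was reacted with 50 pmoles of a 30-nt RNA substrate for 1 h at 37 °C across several added MgCl2 levels (1–48 mM), then stopped with EDTA. Products were reverse transcribed from a substrate-complementary primer, PCR-amplified and sequenced (HiSeq 4000). Fitness is a variant's read proportion after selection over that before, normalised to wild type.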
For C82G A120G A145G C150A C169G U176C, the reverse-splicing fitness was 0.0296. With C82G A120G A145C C169A the reverse-splicing fitness was 0.0237. C82G A120G A145C C169U gave a reverse-splicing fitness of 0.0209. Work on C82G A120G A145C C169G yielded a reverse-splicing fitness of 0.0468. Variant C82G A120G has a reverse-splicing fitness of 0.029. Variant C82G A120C C169A U176A has a reverse-splicing fitness of 0.0185. With C82G A120C C169A U176G the reverse-splicing fitness was 0.00393. Work on C82G A120C C169A U176C yielded a reverse-splicing fitness of 0.0179. Variant C82G A120G A145G C150A C169U U176A has a reverse-splicing fitness of 0.021. With C82G A120G A145G C150A C169U U176C the reverse-splicing fitness was 0.0168. C82G A120G A145G C150A C169U U176G showed a reverse-splicing fitness of 0.00581. With C82G A120G A145C C150G C169A U176C the reverse-splicing fitness was 0.00681. For C82G A120G A145C C150G C169A U176A, the reverse-splicing fitness was 0.00893. Work on C82G A120G A145C C150G C169A U176G yielded a reverse-splicing fitness of 0.00487. In the case of C82G A120G A145G C150A C169A U176C, the reverse-splicing fitness is reported as 0.0228. Variant C82G A120G A145G C150A C169A U176G has a reverse-splicing fitness of 0.00618. C82G A120G A145G C150A C169A U176A showed a reverse-splicing fitness of 0.0199. For C82G A120G A145C C150A U176C, the reverse-splicing fitness was 0.00828. In the case of C82G A120G A145C C150A U176A, the reverse-splicing fitness is reported as 0.0102. In the case of C82G A120G A145C C150A U176G, the reverse-splicing fitness is reported as 0.00453. C82G A120G A145C C150G C169G U176G gave a reverse-splicing fitness of 0.00412. Variant C82G A120G A145C C150G C169G U176C has a reverse-splicing fitness of 0.00761. Variant C82G A120G A145C C150G C169G U176A has a reverse-splicing fitness of 0.00772. Work on C82G A120G A145G C150G C169G yielded a reverse-splicing fitness of 0.0108. Work on C82G A120G A145G C150G C169U yielded a reverse-splicing fitness of 0.0109. In the case of C82G A120G A145G C150G C169A, the reverse-splicing fitness is reported as 0.0111. Variant C82G A120C A145U C150G C169U has a reverse-splicing fitness of 0.0102. For C82G A120C A145U C150G C169A, the reverse-splicing fitness was 0.00974. C82G A120C A145U C150G C169G gave a reverse-splicing fitness of 0.00766. Variant C82G A120C C150G C169U U176G has a reverse-splicing fitness of 0.00535. C82G A120C C150G C169U U176A showed a reverse-splicing fitness of 0.00577. In the case of C82G A120C C150G C169U U176C, the reverse-splicing fitness is reported as 0.0109. Variant C82G A120C A145G C150U C169U U176C has a reverse-splicing fitness of 0.0155. Work on C82G A120C A145G C150U C169U U176G yielded a reverse-splicing fitness of 0.00474. For C82G A120C A145G C150U C169U U176A, the reverse-splicing fitness was 0.0184. With C82G A120G A145G C169U U176G the reverse-splicing fitness was 0.00391. C82G A120G A145G C169U U176C showed a reverse-splicing fitness of 0.0199. Variant C82G A120G A145G C169U U176A has a reverse-splicing fitness of 0.0208. Variant C82G A120C A145U C150G C169G U176G has a reverse-splicing fitness of 0.00427. Variant C82G A120C A145U C150G C169G U176C has a reverse-splicing fitness of 0.00634. Variant C82G A120C A145U C150G C169G U176A has a reverse-splicing fitness of 0.00782. Variant C82G A120C A145U C150U C169U has a reverse-splicing fitness of 0.0172. C82G A120C A145U C150U C169G showed a reverse-splicing fitness of 0.00838. Work on C82G A120C A145U C150U C169A yielded a reverse-splicing fitness of 0.00933. In the case of C82G A120C A145U C150A C169U, the reverse-splicing fitness is reported as 0.00929. In the case of C82G A120C A145U C150A C169G, the reverse-splicing fitness is reported as 0.00739. For C82G A120C A145U C150A C169A, the reverse-splicing fitness was 0.00989. For C82G A120G A145G C150U C169U U176C, the reverse-splicing fitness was 0.0187. Variant C82G A120G A145G C150U C169U U176G has a reverse-splicing fitness of 0.00473. For C82G A120G A145G C150U C169U U176A, the reverse-splicing fitness was 0.0213. C82G A120C A145G C150U U176A gave a reverse-splicing fitness of 0.0566. Variant C82G A120C A145G C150U U176C has a reverse-splicing fitness of 0.0797. C82G A120C A145G C150U U176G gave a reverse-splicing fitness of 0.0154. In the case of C82G A120G A145G C150G, the reverse-splicing fitness is reported as 0.00886. C82G A120G A145G C150A showed a reverse-splicing fitness of 0.0107. For C82G A120G A145G C150U, the reverse-splicing fitness was 0.0247. C82G A120C U176A gave a reverse-splicing fitness of 0.0764. In the case of C82G A120C U176G, the reverse-splicing fitness is reported as 0.0151. C82G A120C U176C gave a reverse-splicing fitness of 0.107. Variant C82G A120C A145U C169A U176A has a reverse-splicing fitness of 0.0121. For C82G A120C A145U C169A U176C, the reverse-splicing fitness was 0.00989. Variant C82G A120C A145U C169A U176G has a reverse-splicing fitness of 0.00379. In the case of C82G A120G A145C C169U U176A, the reverse-splicing fitness is reported as 0.0207. With C82G A120G A145C C169U U176C the reverse-splicing fitness was 0.0185. Work on C82G A120G A145C C169U U176G yielded a reverse-splicing fitness of 0.00392. For C82G A120C A145U C169G U176G, the reverse-splicing fitness was 0.00368. Work on C82G A120C A145U C169G U176C yielded a reverse-splicing fitness of 0.0138. With C82G A120C A145U C169G U176A the reverse-splicing fitness was 0.0121. In the case of C82G A120G A145G C150U U176C, the reverse-splicing fitness is reported as 0.0211. C82G A120G A145G C150U U176A showed a reverse-splicing fitness of 0.0107. With C82G A120G A145G C150U U176G the reverse-splicing fitness was 0.0072. For C82G A120G A145G C169A U176A, the reverse-splicing fitness was 0.0185. Work on C82G A120G A145G C169A U176C yielded a reverse-splicing fitness of 0.0269. Variant C82G A120G A145G C169A U176G has a reverse-splicing fitness of 0.00439. With C82G A120C A145G C169G the reverse-splicing fitness was 0.00863. Work on C82G A120C A145G C169U yielded a reverse-splicing fitness of 0.0256. C82G A120C A145G C169A gave a reverse-splicing fitness of 0.0105. C82G A120G A145G C150G C169A U176A gave a reverse-splicing fitness of 0.013. Work on C82G A120G A145G C150G C169A U176C yielded a reverse-splicing fitness of 0.013. Work on C82G A120G A145G C150G C169A U176G yielded a reverse-splicing fitness of 0.0077. Variant C82G A120G A145U C150A C169A has a reverse-splicing fitness of 0.00985. In the case of C82G A120G A145U C150A C169G, the reverse-splicing fitness is reported as 0.00926. In the case of C82G A120G A145U C150A C169U, the reverse-splicing fitness is reported as 0.00806. In the case of C82G A120C A145G C150G C169U U176G, the reverse-splicing fitness is reported as 0.00789.

From the RNAGym collection of RNA variant scans (doi:10.1093/molbev/msab373)
